# Tests used:
# [1] = test system: wild-type and variant SNAP-GIPR in wild-type mouse islets; test: Insulin secretion from wild-type mouse islets transduced with GIPR adenoviruses; format: cell-based; conditions: Fig 6F
# Outline: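 Groups of 8–10 isolated islets were exposed to agonist or vehicle; secreted insulin was measured in supernatants and content in sonicated lysates. Secretion was expressed as % of total (secreted plus content), then normalized to vehicle and given as fold change.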
# [2] = test system: wild-type and variant SNAP-GIPR in Gipr-/- mouse islets; test: Surface SNAP-GIPR expression in pancreatic islets; format: cell-based, human; conditions: Fig 6B
# [3] = test system: wild-type and variant SNAP-GIPR; test: Single-concentration GIP cAMP response by HTRF in INS-1 cells; format: cell-based, human; conditions: Fig S3E, mean
# Description: All variants were tested in parallel on each occasion to control for transfection efficiency differences between experiments.
# [4] = test system: wild-type and variant SNAP-GIPR; test: Surface SNAP-GIPR expression (SNAP-tag labelling) in AD293 cells; format: cell-based, human; conditions: for AD293 Surface: Fig S3E, mean; for Surface SNAP-GIPR expression: sheet Fig 1C;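 for all read-outs here: scaled to the experimental average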
# Outline: (§1)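 Read-out: whole-cell fluorescence of surface-only SNAP label (Alexa Fluor 647, 500 nM, 10 min, RT), wide-field 20X, several FOVs per well. Flat-field corrected, phase-contrast masked, nontransfected-well signal subtracted; normalized to experiment mean or wild-type.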
# [5] = test system: wild-type and variant SNAP-GIPR; test: Surface SNAP-GIPR expression (SNAP-tag labelling) in INS-1 cells; format: cell-based, human; conditions: Fig 4G; Mean
# Outline: as §1
# [6] = test system: wild-type and variant SNAP-GIPR in Gipr-/- mouse islets; test: Glucagon secretion from Gipr-/- mouse islets transduced with GIPR adenoviruses; format: cell-based; conditions: Fig S6C, Gipr-/- mouse islets
# [7] = column repeated, paired with cAMP 100 nM
molecule,measurement,setting,value
R101H (protein) RAETGSKGQTAGELYQRWERYRRECQETLAAAEPPSGLACNGSFDMYVCWDYAAPNATARASCPWYLPWHHHVAAGFVLHQCGSDGQWGLWRDHTQCENPEKNEAFLDQRLILERLQVMYTVGYSLSLATLLLALLILSLFRRLHCTRNYIHINLFTSFMLRAAAILSRDRLLPRPGPYLGDQALALWNQALAACRTAQIVTQYCVGANYTWLLVEGVYLHSLLVLVGGSEEGHFRYYLLLGWGAPALFVIPWVIVRYLYENTQCWERNEVKAIWWIIRTPILMTILINFLIFIRILGILLSKLRTRQMRCRDYRLRLARSTLTLVPLLGVHEVVFAPVTEEQARGALRFAKLGFEIFLSSFQGFLVSVLYCFINKEVQSEIRRGWHHCRLRRSLGEEQRQLPERAFRALPSGSGPGEVPTSRGLSSGTLPGPGNEASRELESYC,"Insulin secretion, ratio G11 + GIP / G11",[1]; replicate 1,1.571
same,"Insulin secretion, ratio G11 + GIP / G11",[1]; replicate 2,6.006
same,"Insulin secretion, ratio G11 + GIP / G11",[1]; replicate 3,2.0139
same,"Insulin secretion, ratio G11 + GIP / G11",[1]; replicate 4,1.2264
same,"Insulin secretion, ratio G11 + GIP / G11",[1]; replicate 5,0.7288
same,Surface SNAP-GIPR expression in pancreatic islets,[2]; replicate 1,0.3446
same,Surface SNAP-GIPR expression in pancreatic islets,[2]; replicate 2,0.4042
same,Surface SNAP-GIPR expression in pancreatic islets,[2]; replicate 3,0.02787
same,Surface SNAP-GIPR expression in pancreatic islets,[2]; replicate 4,0.08995
same,Surface SNAP-GIPR expression in pancreatic islets,[2]; replicate 5,-0.05398
same,INS-1 cAMP (100 nM),[3],-0.01312
same,AD293 Surface,[4]; [7],0.3592
same,AD293 Surface,[4]; paired with cAMP 100 pM,0.3592
same,Surface SNAP-GIPR expression,[4]; replicate 1,0.3042
same,Surface SNAP-GIPR expression,[4]; replicate 2,0.5275
same,Surface SNAP-GIPR expression,[4]; replicate 3,0.05814
same,Surface SNAP-GIPR expression,[4]; replicate 4,0.1831
same,Surface SNAP-GIPR expression,[4]; replicate 5,0.7685
same,Surface SNAP-GIPR expression,[4]; replicate 6,0.323
same,Surface SNAP-GIPR expression,[4]; replicate 7,0.4744
same,Surface SNAP-GIPR expression,[4]; replicate 8,0.4381
same,Surface SNAP-GIPR expression,[4]; replicate 9,0.4341
same,Surface SNAP-GIPR expression,[4]; replicate 10,0.6442
same,Surface SNAP-GIPR expression,[4]; replicate 11,0.4281
same,Surface SNAP-GIPR expression,[4]; replicate 12,0.4464
same,Surface SNAP-GIPR expression,[4]; replicate 13,0.04565
same,Surface SNAP-GIPR expression,[4]; replicate 14,0.1907
same,Surface SNAP-GIPR expression,[4]; replicate 15,0.4569
same,Surface SNAP-GIPR expression,[4]; replicate 16,0.5164
same,Surface SNAP-GIPR expression,[4]; replicate 17,0.5151
same,Surface SNAP-GIPR expression,[4]; replicate 18,0.4251
same,Surface SNAP-GIPR expression,[4]; replicate 19,0.384
same,Surface SNAP-GIPR expression,[4]; replicate 20,0.5015
same,Surface SNAP-GIPR expression,[4]; replicate 21,0.5316
same,Surface SNAP-GIPR expression,[4]; replicate 22,0.4149
same,Surface SNAP-GIPR expression,[4]; replicate 23,0.4406
same,Surface SNAP-GIPR expression,[4]; replicate 24,0.4166
same,Surface SNAP-GIPR expression,[4]; replicate 25,0.3346
same,Surface SNAP-GIPR expression,[4]; replicate 26,0.3683
same,Surface SNAP-GIPR expression,[4]; replicate 27,0.2116
same,Surface SNAP-GIPR expression,[4]; replicate 28,0.1755
same,Surface SNAP-GIPR expression,[4]; replicate 29,0.2709
same,Surface SNAP-GIPR expression,[4]; replicate 30,0.3405
same,Surface SNAP-GIPR expression,[4]; replicate 31,0.1773
same,Surface SNAP-GIPR expression,[4]; replicate 32,0.3176
same,Surface SNAP-GIPR expression,[4]; replicate 33,0.2814
same,Surface SNAP-GIPR expression,[4]; replicate 34,0.3758
same,Surface SNAP-GIPR expression,[4]; replicate 35,0.422
same,Surface SNAP-GIPR expression,[4]; replicate 36,0.4366
same,Surface SNAP-GIPR expression,[4]; replicate 37,0.2975
same,Surface SNAP-GIPR expression,[4]; replicate 38,0.1954
same,Surface SNAP-GIPR expression,[4]; replicate 39,0.2342
same,Surface SNAP-GIPR expression,[4]; replicate 40,0.2038
same,Surface SNAP-GIPR expression,[4]; replicate 41,0.2137
same,Surface expression,[5],0.19
same,"Glucagon secretion, ratio G0.5 + GIP / G0.5",[6]; replicate 1,1.2225
same,"Glucagon secretion, ratio G0.5 + GIP / G0.5",[6]; replicate 2,1.611
same,"Glucagon secretion, ratio G0.5 + GIP / G0.5",[6]; replicate 3,0.9333
same,"Glucagon secretion, ratio G0.5 + GIP / G0.5",[6]; replicate 4,0.8233
E288G (protein) RAETGSKGQTAGELYQRWERYRRECQETLAAAEPPSGLACNGSFDMYVCWDYAAPNATARASCPWYLPWHHHVAAGFVLRQCGSDGQWGLWRDHTQCENPEKNEAFLDQRLILERLQVMYTVGYSLSLATLLLALLILSLFRRLHCTRNYIHINLFTSFMLRAAAILSRDRLLPRPGPYLGDQALALWNQALAACRTAQIVTQYCVGANYTWLLVEGVYLHSLLVLVGGSEEGHFRYYLLLGWGAPALFVIPWVIVRYLYENTQCWGRNEVKAIWWIIRTPILMTILINFLIFIRILGILLSKLRTRQMRCRDYRLRLARSTLTLVPLLGVHEVVFAPVTEEQARGALRFAKLGFEIFLSSFQGFLVSVLYCFINKEVQSEIRRGWHHCRLRRSLGEEQRQLPERAFRALPSGSGPGEVPTSRGLSSGTLPGPGNEASRELESYC,"Insulin secretion, ratio G11 + GIP / G11",[1]; replicate 1,0.8131
same,"Insulin secretion, ratio G11 + GIP / G11",[1]; replicate 2,1.885
same,"Insulin secretion, ratio G11 + GIP / G11",[1]; replicate 3,1.6101
same,"Insulin secretion, ratio G11 + GIP / G11",[1]; replicate 4,1.127
same,"Insulin secretion, ratio G11 + GIP / G11",[1]; replicate 5,2.303
same,Surface SNAP-GIPR expression in pancreatic islets,[2]; replicate 1,0.1066
same,Surface SNAP-GIPR expression in pancreatic islets,[2]; replicate 2,0.6008
same,Surface SNAP-GIPR expression in pancreatic islets,[2]; replicate 3,0.01404
same,Surface SNAP-GIPR expression in pancreatic islets,[2]; replicate 4,-0.2745
same,Surface SNAP-GIPR expression in pancreatic islets,[2]; replicate 5,-0.1674
same,INS-1 cAMP (100 nM),[3],0.3027
same,AD293 Surface,[4]; [7],0.1748
same,AD293 Surface,[4]; paired with cAMP 100 pM,0.1748
same,Surface SNAP-GIPR expression,[4]; replicate 1,0.1869
same,Surface SNAP-GIPR expression,[4]; replicate 2,0.267
same,Surface SNAP-GIPR expression,[4]; replicate 3,0.08361
same,Surface SNAP-GIPR expression,[4]; replicate 4,0.1519
same,Surface SNAP-GIPR expression,[4]; replicate 5,0.1987
same,Surface SNAP-GIPR expression,[4]; replicate 6,0.07439
same,Surface SNAP-GIPR expression,[4]; replicate 7,0.7465
same,Surface SNAP-GIPR expression,[4]; replicate 8,0.3261
same,Surface SNAP-GIPR expression,[4]; replicate 9,0.1689
same,Surface SNAP-GIPR expression,[4]; replicate 10,0.2273
same,Surface SNAP-GIPR expression,[4]; replicate 11,0.2845
same,Surface SNAP-GIPR expression,[4]; replicate 12,0.2606
same,Surface SNAP-GIPR expression,[4]; replicate 13,0.07673
same,Surface SNAP-GIPR expression,[4]; replicate 14,0.0817
same,Surface SNAP-GIPR expression,[4]; replicate 15,0.1221
same,Surface SNAP-GIPR expression,[4]; replicate 16,0.1487
same,Surface SNAP-GIPR expression,[4]; replicate 17,0.2042
same,Surface SNAP-GIPR expression,[4]; replicate 18,0.1937
same,Surface SNAP-GIPR expression,[4]; replicate 19,0.1495
same,Surface SNAP-GIPR expression,[4]; replicate 20,0.1825
same,Surface SNAP-GIPR expression,[4]; replicate 21,0.2069
same,Surface SNAP-GIPR expression,[4]; replicate 22,0.1788
same,Surface SNAP-GIPR expression,[4]; replicate 23,0.167
same,Surface SNAP-GIPR expression,[4]; replicate 24,0.1096
same,Surface SNAP-GIPR expression,[4]; replicate 25,0.2053
same,Surface SNAP-GIPR expression,[4]; replicate 26,0.1578
same,Surface SNAP-GIPR expression,[4]; replicate 27,0.0991
same,Surface SNAP-GIPR expression,[4]; replicate 28,0.1213
same,Surface SNAP-GIPR expression,[4]; replicate 29,0.1325
same,Surface SNAP-GIPR expression,[4]; replicate 30,0.1696
same,Surface SNAP-GIPR expression,[4]; replicate 31,0.159
same,Surface SNAP-GIPR expression,[4]; replicate 32,0.181
same,Surface SNAP-GIPR expression,[4]; replicate 33,0.1299
same,Surface SNAP-GIPR expression,[4]; replicate 34,0.1533
same,Surface SNAP-GIPR expression,[4]; replicate 35,0.1527
same,Surface SNAP-GIPR expression,[4]; replicate 36,0.05767
same,Surface SNAP-GIPR expression,[4]; replicate 37,0.09894
same,Surface SNAP-GIPR expression,[4]; replicate 38,0.1179
same,Surface SNAP-GIPR expression,[4]; replicate 39,0.124
same,Surface SNAP-GIPR expression,[4]; replicate 40,0.1489
same,Surface SNAP-GIPR expression,[4]; replicate 41,0.1584
same,Surface expression,[5],0.2232
same,"Glucagon secretion, ratio G0.5 + GIP / G0.5",[6]; replicate 1,2.014
same,"Glucagon secretion, ratio G0.5 + GIP / G0.5",[6]; replicate 2,1.482
same,"Glucagon secretion, ratio G0.5 + GIP / G0.5",[6]; replicate 3,1.8204
same,"Glucagon secretion, ratio G0.5 + GIP / G0.5",[6]; replicate 4,1.525
